The target in this assay is T1, human C5aR (CD88) (human, UniProt P21730 1-350).
T1 sequence (looked up): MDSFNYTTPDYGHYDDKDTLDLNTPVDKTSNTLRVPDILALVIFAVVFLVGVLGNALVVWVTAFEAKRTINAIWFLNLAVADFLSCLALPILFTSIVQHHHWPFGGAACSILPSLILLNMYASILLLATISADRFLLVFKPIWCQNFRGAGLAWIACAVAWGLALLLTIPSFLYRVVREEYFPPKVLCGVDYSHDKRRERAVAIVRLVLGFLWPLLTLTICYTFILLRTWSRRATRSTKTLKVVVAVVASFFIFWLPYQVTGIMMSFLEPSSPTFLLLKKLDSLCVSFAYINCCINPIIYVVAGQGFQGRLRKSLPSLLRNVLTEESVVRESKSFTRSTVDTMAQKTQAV
Briefly: cell-based or functional assay.

Take H-Phe-[Orn-Ser-hle-Ocf-Nle] (peptide): the IC50 activity group, enzyme release assay is under 200 nM.
On the same count and under the same terms, in the case of “Ac-Phe-Fcn-Aze-cha-Bta-Phe-NH2 (peptide)” it was under 20 nM; in that of “Ac-Dab-Phe-Orn-Aze-cha-Bta-Phe-NH2 (peptide)”, under 200 nM.
Substance “CH3CH2CO-Phe-Orn-Pro-cha-Bta-Phe-NH2 (peptide)” showed an IC50 activity group, enzyme release assay of under 50 nM.
Same read-out and setting: in the case of “Ac-Pff-Orn-Pro-hle-Bta-Phe-NH2 (peptide)” it was under 200 nM.
The same measure, in the same setting: in the case of Ac-Phe-[Orn-Tic-cha-Trp-Nle] (peptide) it was under 200 nM; in that of H-Phe-[Orn-Hyp-hle-Trp-Hle] (peptide), under 200 nM; in that of “Ac-Off-Orn-Pro-hle-Bta-Phe-NH2 (peptide)”, under 50 nM.
Still for that read-out and setting: to “Ac-Arg-Phe-Orn-Aze-cha-Bta-Phe-NH2 (peptide)” belongs under 50 nM; to Ac-Phe-[Orn-Thr-cha-Trp-Nle] (peptide), under 200 nM.
Consider “Ac-Phe-Orn-Pro-hle-Tff-Phe-NH2 (peptide)”, for which the IC50 activity group, enzyme release assay was under 200 nM.
Substance “Ac-Phe-Orn-Aze-cha-Pcf-Phe-NH2 (peptide)” returned an IC50 activity group, enzyme release assay of under 2000 nM.
On the same count and under the same terms, to “Ac-Phe-Cit-Ser-hle-Bta-Phe-NH2 (peptide)” belongs under 200 nM; to “Ac-Thi-Orn-Aze-cha-Bta-Phe-NH2 (peptide)”, under 20 nM; to “Ac-Phe-Orn-Pro-hle-Mmy-Phe-NH2 (peptide)”, under 200 nM.
On the same count and under the same terms, in the case of “Ac-Phe-Orn-Pro-hle-Bta-Chg-NH2 (peptide)” it was under 200 nM; in that of “Ac-Phe-Orn-Chy-hle-Pff-Phe-NH2 (peptide)”, under 200 nM.
For the substance H-Phe-[Orn-Pro-cha-Pff-Phe] (peptide), the IC50 activity group, enzyme release assay was under 200 nM.
Same read-out and setting: in the case of “Ac-Hyp-Phe-Orn-Aze-cha-Bta-Phe-NH2 (peptide)” it was under 50 nM.
3PP-[Orn-Hyp-cha-Trp-Nle] (peptide) had an IC50 activity group, enzyme release assay of under 50 nM.
The same measure, in the same setting: to Ac-Phe-Orn-Pip-cha-Trp-Phe-OH (peptide) belongs under 2000 nM; to Ac-Phe-Orn-Tic-cha-Trp-Phe-OH (peptide), under 2000 nM; to “Ac-Phe-Orn-Pro-hle-Bta-Cha-NH2 (peptide)”, under 200 nM.
In turn, H-Phe-[Orn-Pro-hle-Ocf-Phe] (peptide) showed an IC50 activity group, enzyme release assay of under 200 nM.
Substance Ac-Phe-[Orn-Hyp-Mmf-Trp-Nle] (peptide) gave an IC50 activity group, enzyme release assay of under 200 nM.
Still for that read-out and setting: in the case of “tBu-CO-Phe-Orn-Pro-cha-Bta-Phe-NH2 (peptide)” it was under 200 nM; in that of “H2N-CO-Phe-Orn-Pro-cha-Bta-Phe-NH2 (peptide)”, under 50 nM.
Take “Ac-Phe-Orn-Pro-hle-Otf-Phe-NH2 (peptide)”: the IC50 activity group, enzyme release assay was under 200 nM.
On the same count and under the same terms, in the case of H-Phe-[Orn-Hyp-hle-Pff-Phe] (peptide) it was under 200 nM; in that of “Ac-Phe-Orn-Pro-hle-Bta-Tyr-NH2 (peptide)”, under 200 nM.
The same measure, in the same setting: to Ac-Phe-[Orn-Hyp-Mmf-Trp-Phe] (peptide) belongs under 200 nM; to Ac-Phe-[Orn-HyA-cha-Trp-Phe] (peptide), under 200 nM.
Still for that read-out and setting: in the case of “Ac-Phe-Fcp-Aze-cha-Bta-Phe-NH2 (peptide)” it was under 50 nM.
The substance Ac-Phe-Orn-Pro-hle-Bta-phe-OH (peptide) came in with an IC50 activity group, enzyme release assay of under 200 nM.
On the same count and under the same terms, to “Ac-Phe-Orn-Pro-hle-Pff-Eaa-NH2 (peptide)” belongs under 200 nM.
Same read-out and setting: to H-Phe-[Orn-NMS-cha-Trp-Nle] (peptide) belongs under 200 nM; to Ac-Phe-[Orn-Hyp-hle-Trp-Phe] (peptide), under 50 nM.
As to H-Phe-[Orn-Hyp-hle-Trp-Nle] (peptide), the IC50 activity group, enzyme release assay was under 50 nM.
“Ac-Phe-Fco-Pro-cha-Bta-Phe-NH2 (peptide)” came in with an IC50 activity group, enzyme release assay of under 50 nM.
The substance “Ac-Phe-Dab-Aze-cha-Bta-Phe-NH2 (peptide)” came in with an IC50 activity group, enzyme release assay of under 50 nM.
“Ac-Phe-Orn-Pro-omf-Bta-Phe-NH2 (peptide)” had an IC50 activity group, enzyme release assay of under 200 nM.
On the same count and under the same terms, to “Ac-Phe-Mpa-Pro-cha-Bta-Phe-NH2 (peptide)” belongs under 200 nM; to “Ac-Phe-Orn-Pro-hle-Mcf-2Ni-NH2 (peptide)”, under 200 nM.
Regarding “Ac-Phe-Orn-Aze-cha-Bta-Phe-NH2 (peptide)”, the IC50 activity group, enzyme release assay is under 20 nM.
“Ac-Phe-Orn-Pro-Cha-Bta-NH-NBn-CO-NH2 (peptide)” came in with an IC50 activity group, enzyme release assay of under 200 nM.
In the case of “Ac-Phe-Har-Aze-cha-Bta-Phe-NH2 (peptide)”, the IC50 activity group, enzyme release assay is under 20 nM.
The same measure, in the same setting: to “Ac-Phe-Orn-Pro-cha-Bta-Pmf-NH2 (peptide)” belongs under 50 nM.
As for “FH2C-CO-Phe-Orn-Pro-cha-Bta-Phe-NH2 (peptide)”, the IC50 activity group, enzyme release assay is under 50 nM.
The substance H-Phe-[Orn-Ser-cha-Trp-Nle] (peptide) showed an EC50, agonistic activity, enzyme release assay of over 1430 nM and an IC50 activity group, enzyme release assay of under 50 nM.
“Ac-Phe-Orn-Pro-ctb-Pff-Phe-NH2 (peptide)” had an IC50 activity group, enzyme release assay of under 50 nM.
Same read-out and setting: to H-Phe-[Orn-Hyp-hle-Trp-Phe] (peptide) belongs under 50 nM.
The substance “Ac-Phg-Orn-Pro-cha-Bta-Phe-NH2 (peptide)” came in with an IC50 activity group, enzyme release assay of under 200 nM.
In turn, “Ac-Thi-Orn-Pro-cha-Bta-Thi-NH2 (peptide)” registered an IC50 activity group, enzyme release assay of under 50 nM.
With “Ac-Orn-Phe-Orn-Aze-cha-Bta-Phe-NH2 (peptide)”, the IC50 activity group, enzyme release assay was under 200 nM.
Still for that read-out and setting: to “Ac-Mff-Orn-Pro-hle-Mcf-Mff-NH2 (peptide)” belongs under 200 nM; to “(-CO-CH2-CH2-CO-)-Phe-Orn-Pro-cha-Bta-Phe-NH2 (peptide)”, under 2000 nM.
As for “Ac-Lys-Phe-Orn-Aze-cha-Bta-Phe-NH2 (peptide)”, the IC50 activity group, enzyme release assay is under 20 nM.
In turn, Ac-Phe-[Orn-Pro-hle-Bta-Nle] (peptide) came in with an IC50 activity group, enzyme release assay of under 200 nM.
Same read-out and setting: to H-Phe-[Orn-Hyp-hle-Pff-Chg] (peptide) belongs under 200 nM.
As for “Ac-Phe-Orn-Pro-cha-Bta-Mcf-NH2 (peptide)”, the IC50 activity group, enzyme release assay was under 200 nM.
“Ac-Phe-Orn-Pro-hle-Bta-Pcf-NH2 (peptide)”: the IC50 activity group, enzyme release assay was under 200 nM.
On the same count and under the same terms, to “Ac-Phe-Orn-Pro-hle-1Ni-Phe-NH2 (peptide)” belongs under 50 nM.
The same measure, in the same setting: in the case of “Ac-Phe-Nle-Pro-cha-Bta-Phe-NH2 (peptide)” it was under 200 nM.
The same measure, in the same setting: to “Ac-Phe-Har-Pro-cha-Bta-Phe-NH2 (peptide)” belongs under 50 nM; to Ac-Phe-[Orn-Pro-hle-Bta-Phe] (peptide), under 200 nM.
In the case of H-Phe-[Orn-Pro-hle-Mcf-Phe] (peptide), the IC50 activity group, enzyme release assay is under 50 nM.
In turn, “Ac-Gly-Phe-Orn-Aze-chg-Bta-Phe-NH2 (peptide)” had an IC50 activity group, enzyme release assay of under 200 nM.
“Ac-Phe-Orn-Pro-hle-Bta-Eaa-NH2 (peptide)” had an IC50 activity group, enzyme release assay of under 200 nM.
Still for that read-out and setting: in the case of “Ac-Phe-Orn-Pro-hle-Egc-Phe-NH2 (peptide)” it was under 200 nM; in that of Ac-Phe-[Orn-Ser-cha-Trp-Nle] (peptide), under 200 nM.
On the same count and under the same terms, in the case of “Ac-Phe-Orn-Pro-cha-Bta-Pcf-NH2 (peptide)” it was under 50 nM; in that of “Ac-Phe-Orn-Hse-cha-Bta-Phe-NH2 (peptide)”, under 200 nM.
The same measure, in the same setting: in the case of “Ac-Phe-Orn-Hyp-cha-Trp-Phe-NH2 (peptide)” it was under 2000 nM; in that of “Ac-Phe-Ffa-Aze-cha-Bta-Phe-NH2 (peptide)”, under 50 nM; in that of “Ac-Phe-Orn-Pro-hle-Mff-Phe-NH2 (peptide)”, under 200 nM.
On to “Ac-Phe-Orn-Pro-hle-Bta-5Ff-NH2 (peptide)”, for which the IC50 activity group, enzyme release assay was under 200 nM.
“Ac-Thi-Orn-Pip-cha-Bta-Phe-NH2 (peptide)” showed an EC50, agonistic activity, enzyme release assay of over 100000 nM and an IC50 activity group, enzyme release assay of under 50 nM.
“Ac-Phe-Orn-Ser-cha-Bta-Phe-NH2 (peptide)”: the IC50 activity group, enzyme release assay was under 50 nM.
“Ac-Phe-Orn-Aze-cha-Bta-NH-CH2-CH2-Ph (peptide)” displayed an IC50 activity group, enzyme release assay of under 2000 nM.
Still for that read-out and setting: to “Ac-His-Phe-Orn-Aze-cha-Bta-Phe-NH2 (peptide)” belongs under 200 nM; to “Ac-Phe-Ech-Pro-cha-Bta-Phe-NH2 (peptide)”, under 200 nM; to “Ac-Phe-Orn-Pro-cha-Bta-Mff-NH2 (peptide)”, under 20 nM.
The same measure, in the same setting: to “Ac-Phe-Orn-Pro-hle-Pff-Phe-NH2 (peptide)” belongs under 200 nM; to “Ac-Phe-Paf-Pro-cha-Bta-Phe-NH2 (peptide)”, under 2000 nM; to “Ac-Phe-Orn(Ac)-Aze-cha-Bta-Phe-NH2 (peptide)”, under 50 nM.

Values taken from patent US7727960B2, “C5a receptor antagonists” (Jerini AG, priority 2003, dated 2010).
